Patent publication US20200317768A1 (published 2020)

What was measured:
Test in all cases: SPR (Biacore); KD of SG1 divided by KD of the variant for this FcgR;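 also: relative to parent M103205H795-SG1 carrying the SG1 human heavy chain constant region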
[1] = target: T1, human FcγRIIb extracellular domain with C-terminal His-tag (human, UniProt P31994 43-217)
T1 construct: Expressed in FreeStyle 293 cells and purified; also called humanFcgRIIb; not shown: C-terminal His-tag
T1 sequence: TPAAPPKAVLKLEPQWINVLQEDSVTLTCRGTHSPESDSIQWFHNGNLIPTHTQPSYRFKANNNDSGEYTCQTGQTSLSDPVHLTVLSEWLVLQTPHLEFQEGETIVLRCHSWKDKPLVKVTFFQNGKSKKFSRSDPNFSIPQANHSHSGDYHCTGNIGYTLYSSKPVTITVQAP
Procedure: (§1) Regarding such interactions, KD values were calculated using the following 1:1 binding model described in BIACORE® T100 Software Handbook BR1006-48 Edition AE.
(§2) The behavior of interacting molecules according to the 1:1 binding model on BIACORE® can be described by Equation 1: Req=C·R max/(KD+C)+RI, wherein, Req is a plot of steady-state binding levels to analyte concentration. C is concentration, RI is bulk refractive index contribution in the sample, and Rmax is analyte binding capacity of the surface. When this equation is rearranged, KD can be expressed as Equation 2: KD=C·Rmax/(Req−RI)−C. KD can be calculated by substituting the values of Rmax, RI, and C into Equation 1 or Equation 2. From the current measurement conditions, RI=0, C=2 μmol/L can be used.
(§3) The variants were expressed using M103202L889-SK1 as the light chain and their affinity was analyzed.

[2] = target: T2, human FcγRIIaH extracellular domain with C-terminal His-tag (human, UniProt P12318 34-217)
T2 construct: Expressed in FreeStyle 293 cells and purified; also called human FcγRIIa (type H); FcgRIIaH; not shown: C-terminal His-tag
T2 sequence: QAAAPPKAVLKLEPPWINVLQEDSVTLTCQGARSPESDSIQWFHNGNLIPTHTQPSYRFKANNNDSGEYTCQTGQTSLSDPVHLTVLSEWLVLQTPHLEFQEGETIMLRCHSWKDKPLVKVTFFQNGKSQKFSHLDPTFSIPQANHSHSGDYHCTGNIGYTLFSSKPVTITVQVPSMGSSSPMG
Procedure: as §1, §2, §3

[3] = target: T3, human FcγRIIIaV extracellular domain with C-terminal His-tag (human, UniProt P08637 17-208)
T3 construct: Expressed in FreeStyle 293 cells and purified; also called FcgRIIIaV; not shown: C-terminal His-tag
Procedure: as §1, §2, §3

[4] = target: T4, cynomolgus monkey FcγRIIa2 extracellular domain with C-terminal His-tag (cynomolgus monkey)
T4 construct: Expressed in FreeStyle 293 cells and purified; also called cyno FcγRIIa2; cynoFcgRIIa2; not shown: C-terminal His-tag
T4 chain: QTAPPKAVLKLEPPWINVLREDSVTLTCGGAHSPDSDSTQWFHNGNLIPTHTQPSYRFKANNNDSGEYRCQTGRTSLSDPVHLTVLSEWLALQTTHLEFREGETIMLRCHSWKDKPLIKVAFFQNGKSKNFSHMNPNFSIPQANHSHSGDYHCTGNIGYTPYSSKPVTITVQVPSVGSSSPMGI
Procedure: as §1, §2, §3

[5] = target: T5, cynomolgus monkey FcγRIIIaS extracellular domain with C-terminal His-tag (cynomolgus monkey, UniProt Q8SPW2 21-206 at identity 1.00))
T5 construct: Expressed in FreeStyle 293 cells and purified; also called cyno FcγRIIIaS; cynoFcγRIIIaS; not shown: C-terminal His-tag
T5 chain: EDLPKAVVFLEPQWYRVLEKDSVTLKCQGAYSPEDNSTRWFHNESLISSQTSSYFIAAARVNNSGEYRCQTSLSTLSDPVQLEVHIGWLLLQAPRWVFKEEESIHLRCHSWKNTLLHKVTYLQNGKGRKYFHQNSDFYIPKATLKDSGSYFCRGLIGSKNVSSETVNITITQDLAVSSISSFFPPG
Procedure: as §1, §2, §3

[6] = target: T6, cynomolgus monkey FcγRIIb extracellular domain with C-terminal His-tag (cynomolgus monkey)
T6 construct: Expressed in FreeStyle 293 cells and purified; also called cyno FcγRIIb; cynoFcγRIIb; not shown: C-terminal His-tag
T6 chain: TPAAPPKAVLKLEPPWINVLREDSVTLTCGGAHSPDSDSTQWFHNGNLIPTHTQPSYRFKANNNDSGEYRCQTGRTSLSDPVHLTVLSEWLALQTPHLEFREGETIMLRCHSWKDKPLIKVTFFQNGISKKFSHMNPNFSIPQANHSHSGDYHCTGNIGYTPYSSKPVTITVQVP
Procedure: as §1, §2, §3

[7] = target: T7, cynomolgus monkey FcγRIIa3 extracellular domain with C-terminal His-tag (cynomolgus monkey)
T7 construct: Expressed in FreeStyle 293 cells and purified; also called cyno FcγRIIa3; cynoFcgRIIa3; not shown: C-terminal His-tag
T7 chain: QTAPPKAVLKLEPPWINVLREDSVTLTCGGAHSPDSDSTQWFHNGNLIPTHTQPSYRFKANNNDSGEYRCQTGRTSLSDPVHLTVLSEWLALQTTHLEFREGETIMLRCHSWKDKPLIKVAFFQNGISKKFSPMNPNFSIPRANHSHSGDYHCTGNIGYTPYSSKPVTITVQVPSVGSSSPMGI
Procedure: as §1, §2, §3

[8] = target: T8, cynomolgus monkey FcγRIIa1 extracellular domain with C-terminal His-tag (cynomolgus monkey)
T8 construct: Expressed in FreeStyle 293 cells and purified; also called cyno FcγRIIa1; cynoFcgRIIa1; not shown: C-terminal His-tag
T8 chain: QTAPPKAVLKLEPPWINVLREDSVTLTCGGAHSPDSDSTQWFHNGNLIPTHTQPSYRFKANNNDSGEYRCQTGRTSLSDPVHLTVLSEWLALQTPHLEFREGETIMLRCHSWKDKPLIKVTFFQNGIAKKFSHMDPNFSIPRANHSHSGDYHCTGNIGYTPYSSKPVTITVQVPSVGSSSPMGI
Procedure: as §1, §2, §3

[9] = target: T9, human FcγRIIaR extracellular domain with C-terminal His-tag (human, UniProt P12318 34-217)
T9 construct: Expressed in FreeStyle 293 cells and purified; also called human FcγRIIa (type R); FcgRIIaR; not shown: C-terminal His-tag
T9 chain: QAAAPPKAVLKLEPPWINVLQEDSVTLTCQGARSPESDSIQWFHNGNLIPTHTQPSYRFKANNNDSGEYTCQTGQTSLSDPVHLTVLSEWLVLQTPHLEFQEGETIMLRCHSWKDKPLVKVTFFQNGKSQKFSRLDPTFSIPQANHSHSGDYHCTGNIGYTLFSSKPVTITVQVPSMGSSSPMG
Procedure: as §1, §2, §3

T3 sequence (P08637 17-208 F176V): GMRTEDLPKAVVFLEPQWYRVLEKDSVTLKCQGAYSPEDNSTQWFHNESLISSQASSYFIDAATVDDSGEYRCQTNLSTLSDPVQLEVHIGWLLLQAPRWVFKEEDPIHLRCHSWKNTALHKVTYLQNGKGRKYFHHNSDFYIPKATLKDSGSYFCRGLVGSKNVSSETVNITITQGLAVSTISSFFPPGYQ

Binder | KD fold (SG1 = 1) [1] | KD fold (SG1 = 1) [2] | KD fold (SG1 = 1) [3] | KD fold (SG1 = 1) [4] | KD fold (SG1 = 1) [5] | KD fold (SG1 = 1) [6] | KD fold (SG1 = 1) [7] | KD fold (SG1 = 1) [8] | KD fold (SG1 = 1) [9]
M103205H795-MY198 / M103202L889-SK1 (antibody, human IgG1, kappa, Fc variant of M103205H795-SG1, expressed with M103202L889-SK1 as light chain) heavy: QVTLKESGPVLVKPTETLTLTCTVSGIDLSHDDISWVRQAPGKGLEWVGIISYAGSTYYASWAKGRLTISKDTSKNQVVLTMTNMDPVDTATYYCARGVPAYSHGGDLWGQGTLVTVSSASTKGPSVFPLAPSSKSTSGGTAALGCLVKDYFPEPVTVSWNSGALTSGVHTFPAVLQSSGLYSLSSVVTVPSSSLGTQTYICNVNHKPSNTKVDKKVEPKSCDKTHTCPPCPAPELLNGPVVFLFPPKPKDTLMISRTPEVTCVVVDVSDEDPEVKFNWYVDGVEVHNAKTKPREEQYNSTYRVVSVLTVLHQDWLNGKEYKCKVSNKALPKPIEKTISKAKGQPREPQVYTLPPSREEMTKNQVSLTCLVKGFYPSDIAVEWESNGQPENNYKTTPMVLDSDGSFFLYSKLTVDKSRWQQGNVFSCSVMHEALHNHYTQKSLSLSP light: DIVMTQSPATLSLSPGERATLSCTSSQSVYHANWLSWFQQKPGQPPKLLIYWASTLAYGVPSRFSGSGSGTDFTLTISSLQPEDAATYYCAGGYGGGRYAFGQGTKVEIKRTVAAPSVFIFPPSDEQLKSGTASVVCLLNNFYPREAKVQWKVDNALQSGNSQESVTEQDSKDSTYSLSSTLTLSKADYEKHKVYACEVTHQGLSSPVTKSFNRGEC | 11 fold | 1.3 fold | 0.12 fold | 15.5 fold | 0.18 fold | 7.5 fold | 12.1 fold | 7.3 fold | 1.4 fold
M103205H795-MY209 / M103202L889-SK1 (antibody, human IgG1, kappa, Fc variant of M103205H795-SG1, expressed with M103202L889-SK1 as light chain) heavy: QVTLKESGPVLVKPTETLTLTCTVSGIDLSHDDISWVRQAPGKGLEWVGIISYAGSTYYASWAKGRLTISKDTSKNQVVLTMTNMDPVDTATYYCARGVPAYSHGGDLWGQGTLVTVSSASTKGPSVFPLAPSSKSTSGGTAALGCLVKDYFPEPVTVSWNSGALTSGVHTFPAVLQSSGLYSLSSVVTVPSSSLGTQTYICNVNHKPSNTKVDKKVEPKSCDKTHTCPPCPAPELLNGPSVFLFPPKPKDTLMISRTPEVTCVVVDVSDEDPEVKFNWYVDGVEVHNAKTKPREELYNSTYRVVSVLTVLHQDWLNGKEYKCKVSNTALPKPIEKTISKAKGQPREPQVYTLPPSREEMTKNQVSLTCLVKGFYPSDIAVEWESNGQPENNYKTTPPVLDSDGSFFLYSKLTVDKSRWQQGNVFSCSVMHEALHNHYTQKSLSLSP light: DIVMTQSPATLSLSPGERATLSCTSSQSVYHANWLSWFQQKPGQPPKLLIYWASTLAYGVPSRFSGSGSGTDFTLTISSLQPEDAATYYCAGGYGGGRYAFGQGTKVEIKRTVAAPSVFIFPPSDEQLKSGTASVVCLLNNFYPREAKVQWKVDNALQSGNSQESVTEQDSKDSTYSLSSTLTLSKADYEKHKVYACEVTHQGLSSPVTKSFNRGEC | 9.2 fold | 1.2 fold | 0.06 fold | 7.4 fold | 0.16 fold |  | 5.9 fold | 5.1 fold | 1.3 fold
M103205H795-MY199 / M103202L889-SK1 (antibody, human IgG1, kappa, Fc variant of M103205H795-SG1, expressed with M103202L889-SK1 as light chain) heavy: QVTLKESGPVLVKPTETLTLTCTVSGIDLSHDDISWVRQAPGKGLEWVGIISYAGSTYYASWAKGRLTISKDTSKNQVVLTMTNMDPVDTATYYCARGVPAYSHGGDLWGQGTLVTVSSASTKGPSVFPLAPSSKSTSGGTAALGCLVKDYFPEPVTVSWNSGALTSGVHTFPAVLQSSGLYSLSSVVTVPSSSLGTQTYICNVNHKPSNTKVDKKVEPKSCDKTHTCPPCPAPELLNGPSVFLFPPKPKDTLMISRTPEVTCVVVDVSEEDPEVKFNWYVDGVEVHNAKTKPREEQYNSTYRVVSVLTVLHQDWLNGKEYKCKVSNKALPKPIEKTISKAKGQPREPQVYTLPPSREEMTKNQVSLTCLVKGFYPSDIAVEWESNGQPENNYKTTPPVLDSDGSFFLYSKLTVDKSRWQQGNVFSCSVMHEALHNHYTQKSLSLSP light: DIVMTQSPATLSLSPGERATLSCTSSQSVYHANWLSWFQQKPGQPPKLLIYWASTLAYGVPSRFSGSGSGTDFTLTISSLQPEDAATYYCAGGYGGGRYAFGQGTKVEIKRTVAAPSVFIFPPSDEQLKSGTASVVCLLNNFYPREAKVQWKVDNALQSGNSQESVTEQDSKDSTYSLSSTLTLSKADYEKHKVYACEVTHQGLSSPVTKSFNRGEC | 2.4 fold | 0.6 fold | 0.06 fold | 2.6 fold | 0.09 fold | 1.6 fold | 1.4 fold | 1.7 fold | 0.4 fold
